Target: EsxE-EsxF heterodimer (Mycobacterium tuberculosis) (UniProt P9WNH8)
Test: negative-stain electron microscopy

EsxE-EsxF heterodimer (from UniProt P9WNH8 1-90; P9WNH6 1-103) (complex)
stoichiometry N: 5

Reference: paper PMC7810871
